Experiment: soluble on expression in E. coli; label from the status in PepcDB or PDB records

Sequence | soluble on expression in E. coli
MDGQADGMFIDRAEDARKQEITEQYLNFLDNQADTFHYRQKIVKMMNDGESRLVMNLDEIREILPERAEGLLTQSVLEMNCLQSALQMAINRSDVQAVVKTGFHVGFEGTFGERHVNPRTLKSSYLGNLVCCEGIVTKCSTVRQKLLTSVHYCPATNKVLEKKFADFTMLDTAVTNNNYPTEDENKNPLETEFGHSVYKDHQTFTIQELPESAPAGQLPRAVDCVADLDLADRVKPGDRVRIIGVFRVLPNKQNGVSSGSFRSIIIINHIQMLSKEVIPNFEPQDVKDVRKISKSRNPFELLARSLAPSICGHEETKKALLCLLLGGMEKILNNGSRLRGDINVLLIGDPSVAKSQLLRYVLRMAPRAITTTGRGSSGVGLTAAVTTDPDSGERRLEAGAMVLADRGVVCIDEFDKMSDIDRTAIHEVMEQGRVTISKAGIHAKLNARCSVLAAANPVYGRYNPFKSPMENIGMQDSLLSRFDLIFVLLDEHDADKDANVAEHVLKLHTYRTQGEADGTVLPMGGGVETISTINMETKKASSSIYEENTQWAGIQDTKILTMDFMRKYIHLARSVQPKLTDEATEYISEVYADIRSFDITKTDQERTMPVTARQLETLIRLSTAIAKARFSKKVEREDTEKAYNLLHFACFKEKPKARQEYEKKKRAPRIDGDDDEDQSDNEDMATSEEPQSSSVPTAATPRRGVRRRAEDDDSQDSMMDTTIGESQPTAKKARTGPAAIGVDRYKELRKYVRKAFDDIGSTDDMVELQIITDSVQTQAGSHKFTEDELKAGYEQLENDNAAMIAEDKITLI | not soluble
MPANKLVALTFDDGPDNVLTARVLDKLDKYNVKATFMVVGQRVNDSTAAIIRRMVNSGHEIGNHSWSYSGMANMSPDQIRKSIADTNAVIQKYAGTTPKFFRPPNLETSPTLFNNVDLVFVGGLTANDWIPSTTAEQRAAAVINGVRDGTIILLHDVQPEPHPTPEALDIIIPTLKSRGYEFVTLTELFTLKGVPIDPSVKRMYNSVPLEHHHHHH | soluble
MLSYHTDIPTDLPLLRQAVEAIRREESGGAVPDSDRPRVIYEARNRLYAIRTAQGEQVVKSFRIPIAIQRVVYSFFRPSKAARSYRNAIRLGRCGIGTPRPSGYAIEREKGLLCRSYYVCESMHDCRDIRLSMQGVEGGEALLRALAGFIARMHRAGIHHIDLSPGNVLYRTDEKGEYSFYLIDLNRMKFYDKPIVGRKAYANFARLSFCPAVSKQLAEYYAEAQGLNTDGVVQGVQSESDRFFRSKVRKYARKALVREQKRMSRSAFRRAYIRYRSVRLIRKLTGCTRLFRIENDLYTSYLEVGDLRHTLKRAEGYSSPKNVQ | not soluble
MGSDKIHHHHHHMSNEFDSDRYSTYWAEEWLDVKQYSPIGRHTRRKIMQLLARCPAPDTFADFGSGEGSLLSMVHAKYPAARLFGCDFASESVRRCRQRLPQAEIVLKDLTDPEPPFAGRVSVGVCSEVLEHIEDDARALHNLGTWAEHVIITVPGGELDESSRAVGHLRHYTKDSLRGLARRAGLEVLHLEEWGFPFSYPWYARVRNKAGYGMMVGRYSMRKKLLCHALYLLFFGNDLFSSGNKLFMLCRGSKA | not soluble
MTMPVNTIMGLFAKSPIKPLQRHVVCVNECCSHLINFFEVCNKGDWEKAGEIRAQISHLEKEADVLKREIRLKLPRGLFMPVDRSDMLELLTQQDKLANLAKDIAGRVYGRQLVIPEPLQENFIAYVRRCLDAANQAQNVINELDELLETGFKGREVTLVAEMIHQLDVIEDDTDSMQIRLRQQLMAIESKMNPIDVMFLYKILEWVGGIADQAQRVGARLELMLSRS | not soluble
VFRQTFLEFSQRTVSQARLDIGRKKLQELSSTFARAENEFGVPAGVIAAFWAMETDFGAVQGDFNTRNALVTLSHDCRRPELFRPQLLALIEMVQHGDLDPATNTGAWAGEIGQVQMLPKDIIAFGVDGDGNGHINVKDSAPDAILTAAKFIQHLGFKKGEPWMQEVSVPENLPWEKSGLGGSLTAGDWFALGVTPRDGNKNFASLPAALIMPQGRKGPTFITYPNFNIYLEWNQSFIYTTSAAYFANRLMGAPVY | not soluble
MKIAYFSDTYYPTPDGVSTYLKDVKRGLEKRGHEVYIFSLTGDPHEKNVFIPRTVPFPPYDQYRMPLIPFPFREFKTAVDIMPDVIHLHNAFYMSSVGYLVARRLGKKPISTFHTDIDKMRESIRLPFSDLIFDLGKRYSIYLYRKCKFVLAPSCQVKAYLERCGLKNIVTVPLFVDTDELSPAKASNKQDIILYLGRLTKDKGVYRVLELANEMKGTGYKFIIAGVGPELERMKAYVKENDISNVNILGYVKEDEKKQLMEVSKFFIYPSSADTFGISVFEALSMGLPAIVSKEFPVKEDTNAIVYEDFSNIKHIANKLLNIDQATYSEMSTSARTLAISKYSIDRHIDQLLSLYMSLVDHLEHHHHHH | not soluble
MSLTKPTIALTELVEKGADADLLKQMIQFVAQRMMEFDVEGLCGAGFDVKSPDRTNSRNGYRDRLWQTRAGDVDLKIPKLRQGNYFPGFLEPRRTAEKAMAAVIQEAYIQGVSTRSVDELVKAMGMTGISKSQVSRLAGEIDERVHAFLDRPLEGDWPYLWIDATYVKVREAGRIVSVVVIIAVAVNTDGGREVLGMRVGPSEAEPFWTDFLRSLMRRGLRGVKLVISDAHEGLKAAASKVFNATWQRCRVHFMRNAMAHVGKGQRTMVAALLRTVFAQDSRAECHQQWRLVADQLREKYPKIATLMDGCEDEVLAHMAFPKAHRQQLHSTNPLERLNAEIKRRTDVVGIFPNDPAITRLVGAMLLEQNDEWCLQRRYMQLEAFEAVSDNPQAKLSAVINEGHHHHHH | soluble
GSPGIHMLGGSSDAGLATAAARGQVETVRQLLEAGADPNALNRFGRRPIQVMMMGSAQVAELLLLHGAEPNCADPATLTRPVHDAAREGFLDTLVVLHRAGARLDVCDAWGRLPVDLAEEQGHRDIARYLHAATGD | soluble
SLVNLKVNLLLVDYRGYGKSEGEASEEGLYLDSEAVLDYVMTRPDLDKTKIFLFGRSLGGAVAIHLASENSHRISAIMVENTFLSIPHMASTLFSFFPMRYLPLWCYKNKFLSYRKISQCRMPSLFISGLSDQLIPPVMMKQLYELSPSRTKRLAIFPDGTHNDTWQCQGYFTALEQFIKEVVKSHSPEEMAKTSSNVTII | soluble
TKDFNWNSTFNIAYNSSDVKYLGIDGTGEKIKRLTLDGANSRVGSVSVQNILGHPYGELVGYEYKRTSDGQVIFENGLPVHSDEVQVLGNGVYKVTGGWRNEFTYKNITLSFLIDFKAGAKMFSGTNLSLYSNGLHKNTLQGRGADGKGTMVGNGVMSDGKGGYVKNTVAVSAQDYWQAITSQNIAEEFVYNASFIKLRELSVGYTLPQAWLNKQTLIKGVTLSLVGRNLWTILKHTDNIDPESAYNNGNAQGLELNGYPATRNVGFNVNVKF | not soluble
MSGDFDTIRDASSPDEVQLVRLLEEKIKSLQIEIENLRKELNYYKAEMEKMLSPPLIEAVVLDVLPDGRVLVRSSSGPNLVVNIASHIDQKLIKPGISVALNQRGSTILEVLPQKE | soluble
MKFSVLMSLYIKENPQFLRECFESLVAQTRQADEIVLVFDGVVTPDLEFVVTEFETKLPLKLVKLPQNRGLGKALNEGLLHCDYDWVFRMDTDDICVPDRFEKQVAFIEQHPESIIFGGQIAEFGKNVNDIVAYRNVPTSAQEIIKFTQKRCPFNHMTVAYQKSAVINCGGYEDLQEDYYLWIKLVAQGLYMANLPDILVYARVGNGMVSRRRGVNQAKAEWRLFKLKYRLGIQGLLSGLFTFALRFGSRLLPTSLLKKLYQTFLRK | soluble
MTESNGNSEITTTEGNTGPVVESSLDPLAGRPEQSEDDIAKASDVEEYLRDVIDPELGINVVDLGLVYDIWMEGSIHAHVNMTLTSPACPLTDVIEDQAESAVVGNKVAETLTIHWVWMPPWGPHMITEDGREQLRALGFSV | not soluble
MAHHHHHHMPADSTATAREVPIDTVALQLDAEMAQMRLQRQRYSTLCTRKNRLQAHVDELNAQGKDLTFQRQREQTRSAQELEHGLASSSTSLPEISRTPGDQAQLPAEVLGGALQELTACITERRELLQHLRDGSHDCLKLRDARFAKCSLSTVAGLDDHVASQSGIHASDTTAVIAGRGEAPTRCAARNPVSDSAVTSAAPASGLRHVEEGLAKAHQALCRGEEKALAEREYLLLLLQQCAQPQQLQQGRGRLACRQMAD | not soluble
